# Residue numbers refer to the chain shown, from its start. Names and notes keep the numbering of the source.
# T1: recombinant biotinylated rat PAR2 extracellular residues 1-75, N-terminal AviTag, C-terminal Flag and poly … (rat, UniProt Q63645 26-75, not fully specified; biotin on the AviTag (enzymatic biotinylation))
# T1 construct: range 1-75; not shown: N-terminal AviTag (Avidity LLC); C-terminal Flag and poly Histidine tags
# T1 chain (looked up): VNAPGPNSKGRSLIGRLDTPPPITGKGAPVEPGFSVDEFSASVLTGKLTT
# B1: Par0067 Fab (Fab, V domains shown)
# VH: EVQLLESGGGLVQPGGSLRLSCAASGFTFSSYAMNWVRQAPGKGLEWVSTISYSGSLISYADSVKGRFTISRDNSKNTLYLQMNSLRAEDTAVYYCARINNDPMDVWGQGTLVTVSS
# VL: SIELTQPPSVSVSPGQTASITCSGDNLGKKYVQWYQQKPGQSPVLVIYDDSNRPSGIPERFSGSNSGNTATLTISGTQAMDEADYYCQTWDGNPTTGETNVFGGGTKLTVL
# notes: Fab; also called ZZ15D2-D02
# B2: PaB670076 Fab (Fab, V domains shown)
# VH: B1 VH
# VL: B1 VL with Q88H, G92H, N93H, P94H, T99H
# notes: Fab; also called ZZ1NHH-F09
# B3: PaB670084 Fab (Fab, V domains shown)
# VH: B1 VH with Y53H, S56H, S59H, Y60H, V64H
# VL: B1 VL
# notes: Fab; also called ZZ1PXA-A05
# B4: Par0067 IgG (antibody, V domains shown)
# VH: B1 VH
# VL: B1 VL
# notes: IgG1-TM (L234F, L235E, P331S), human lambda light chain; also called ZZ15D2-D02; parent Par0067 IgG
# B5: PaB670149 IgG (antibody, V domains shown)
# VH: B1 VH with S54H, S56H, L57H, V64H, K65H, G66H, N101H
# VL: B1 VL with Q88H, D91H, G92H, N93H, T96H, T99H
# notes: IgG1-TM (L234F, L235E, P331S), human lambda light chain
# B6: PaB670157 IgG (antibody, V domains shown)
# VH: B1 VH with N100H, N101H
# VL: B1 VL with N93H, P94H, T95H, V101H
# notes: as for B5
# B7: PaB670144 IgG (antibody, V domains shown)
# VH: B1 VH with S54H, S56H, L57H, V64H, K65H, G66H, N101H
# VL: B1 VL with T96H
# notes: as for B5
# B8: PaB670146 IgG (antibody, V domains shown)
# VH: B1 VH with N101H
# VL: B1 VL with Q88H, D91H, G92H, N93H, T96H, T99H
# notes: as for B5
# B9: PaB670045 IgG (antibody, V domains shown)
# VH: B1 VH with N100H, N101H
# VL: B1 VL
# notes: IgG1-TM (L234F, L235E, P331S), human lambda light chain; also called ZZ1KX3-F01
# B10: PaB670048 IgG (antibody, V domains shown)
# VH: B1 VH with N100H, N101H, V106H
# VL: B1 VL
# notes: IgG1-TM (L234F, L235E, P331S), human lambda light chain; also called ZZ1KX4-E11
# B11: PaB670156 IgG (antibody, V domains shown)
# VH: B1 VH with N101H
# VL: B1 VL with N93H, P94H, T95H, V101H
# notes: as for B5
# B12: PaB670152 IgG (antibody, V domains shown)
# VH: B1 VH with N100H, N101H
# VL: B1 VL with Q88H, G92H, N93H, P94H, T99H
# notes: as for B5
# B13: PaB670084 IgG (antibody, V domains shown)
# VH: B1 VH with Y53H, S56H, S59H, Y60H, V64H
# VL: B1 VL
# notes: IgG1-TM (L234F, L235E, P331S), human lambda light chain; also called ZZ1PXA-A05
# B14: PaB670153 IgG (antibody, V domains shown)
# VH: B1 VH with S54H, S56H, L57H, V64H, K65H, G66H
# VL: B1 VL with Q88H, G92H, N93H, P94H, T99H
# notes: as for B5
# B15: PaB670142 IgG (antibody, V domains shown)
# VH: B1 VH with N100H, N101H
# VL: B1 VL with T96H
# notes: as for B5
# B16: PaB670141 IgG (antibody, V domains shown)
# VH: B1 VH with N101H
# VL: B1 VL with T96H
# notes: as for B5
# B17: PaB670143 IgG (antibody, V domains shown)
# VH: B1 VH with S54H, S56H, L57H, V64H, K65H, G66H
# VL: B1 VL with T96H
# notes: as for B5
# B18: PaB670163 IgG (antibody, V domains shown)
# VH: B1 VH with S54H, S56H, L57H, V64H, K65H, G66H, N101H
# VL: B1 VL with Q88H, N93H, P94H, V101H
# notes: as for B5
# B19: PaB670128 IgG (antibody, V domains shown)
# VH: B1 VH with S54H, S56H, L57H, V64H, K65H, G66H, N100H, N101H
# VL: B1 VL
# notes: IgG1-TM (L234F, L235E, P331S), human lambda light chain; also called ZZ1RUE-A01
# B20: PaB670151 IgG (antibody, V domains shown)
# VH: B1 VH with N101H
# VL: B1 VL with Q88H, G92H, N93H, P94H, T99H
# notes: as for B5
# B21: PaB670159 IgG (antibody, V domains shown)
# VH: B1 VH with S54H, S56H, L57H, V64H, K65H, G66H, N101H
# VL: B1 VL with N93H, P94H, T95H, V101H
# notes: as for B5
# B22: PaB670148 IgG (antibody, V domains shown)
# VH: B1 VH with S54H, S56H, L57H, V64H, K65H, G66H
# VL: B1 VL with Q88H, D91H, G92H, N93H, T96H, T99H
# notes: as for B5
# Biological target: T2, recombinant biotinylated human PAR2 extracellular domain (residues 1-75), N-terminal AviTag, C-terminal Flag … (human, UniProt P55085 26-75, biotin on the AviTag (enzymatic biotinylation))
# T2 construct: also called Bio-human-PAR2 ECD; human PAR2 ECD; not shown: N-terminal AviTag (Avidity LLC); C-terminal Flag and poly Histidine tags
# Test: Biacore SPR 25 C, pH 6.0
# Experimental: (§1) The experiments were carried out using recombinant human, rat and cynomolgus PAR2 with an N-terminal Avi tag and C-terminal Flag-His tags.
# (§2) Streptavidin was covalently immobilised to a C1 chip surface using standard amine coupling techniques at a concentration of 4 μg/ml in 10 mM Sodium acetate pH 4.5. A final streptavidin surface of approximately 30-100 RUs was achieved. Recombinant biotinylated PAR2 species (produced in-house) were titrated onto the streptavidin chip surface at 4 μg/ml in HBS-EP+ buffer to enable Fab binding at saturation (Rₘₐₓ). This low level of analyte binding ensured minimal mass transport effects.
# (§3) The anti-PAR2 Fabs were serially diluted (0.39 nM-25 nM) in HBS-EP+ buffer pH 7.4 or MES-BS-EP+ pH 6.0 buffer or in MES-BS-EP+ pH 5.6 buffer and flowed over the chip at 50 μl/min, with 3 minutes association and up to 30 minutes dissociation. Multiple buffer-only injections were made under the same conditions to allow for double reference subtraction of the final sensorgram sets, which were analysed using the BiaEval software (version 2.0.1). The chip surface was fully regenerated with pulses of 4 M MgCl₂.
# T2 sequence (P55085 26-75): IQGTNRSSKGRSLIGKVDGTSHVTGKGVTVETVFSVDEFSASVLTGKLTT
Kd,koff,kon,Binder
0.0312 nM,9.72e-05 s⁻¹,3.12e+06 M⁻¹ s⁻¹,B1
4.61 nM,0.00514 s⁻¹,1.11e+06 M⁻¹ s⁻¹,B2
4.41 nM,0.00763 s⁻¹,1.73e+06 M⁻¹ s⁻¹,B3

# Biological target: T1, recombinant biotinylated rat PAR2 …
# Test: Biacore SPR 25 C, pH 6.0
# Experimental: as §1, §2, §3
Kd,koff,kon,Binder
0.17 nM,0.000544 s⁻¹,3.21e+06 M⁻¹ s⁻¹,B1
30.7 nM,0.051 s⁻¹,1.66e+06 M⁻¹ s⁻¹,B2
10.8 nM,0.0277 s⁻¹,2.57e+06 M⁻¹ s⁻¹,B3

# Biological target: T2, recombinant biotinylated human PAR2 …
# Test: Biacore SPR 25 C, pH 7.4
# Experimental: as §1, §2, §3
Kd,koff,kon,Binder
0.0075 nM,4.96e-05 s⁻¹,6.66e+06 M⁻¹ s⁻¹,B1
0.207 nM,0.00121 s⁻¹,5.84e+06 M⁻¹ s⁻¹,B2
0.25 nM,0.00162 s⁻¹,6.49e+06 M⁻¹ s⁻¹,B3

# Biological target: T1, recombinant biotinylated rat PAR2 …
# Test: Biacore SPR 25 C, pH 7.4
# Experimental: as §1, §2, §3
Kd,koff,kon,Binder
0.0376 nM,0.000194 s⁻¹,5.16e+06 M⁻¹ s⁻¹,B1
1.69 nM,0.0107 s⁻¹,6.34e+06 M⁻¹ s⁻¹,B2
1.23 nM,0.00837 s⁻¹,6.83e+06 M⁻¹ s⁻¹,B3

# Biological target: T2, recombinant biotinylated human PAR2 …
# Test: HTRF competition with Dylight650-Par0067 IgG, IgG
# Experimental: (§4) Parent Par0067 IgG (used as a reference/control in all assays) was pre-diluted to give a 2000 nM stock in each of the two different pH assay buffers (in order to give a top final assay IgG concentration of 500 nM). All test, or other reference/control IgG were tested from a top final assay concentration of ¼ of the neat undiluted sample (i.e. no pre-dilution step was performed). Duplicate 11 point 1:3 serial dilutions then were prepared on 384 well polypropylene Greiner plates in each of the two assay buffers (pH 7.4 & 6.0). 5 μl per well was transferred from the relevant pH IgG dilution plate to the corresponding assay plate (pH 7.4 and pH 6.0). 5 ul of the appropriate pH assay buffer was added to the total and non-specific wells.
# (§5) For multipoint dose response curves % Specific Binding values were plotted versus test purified antibody concentration (scFv or IgG). IC₅₀ values were determined via a sigmoidal dose response inhibition variable slope curve fit (4 parameter logistic equation) using Graphpad Prism Software.
Fold IC50 (pH 6.0 v pH 7.4),Fold IC50 pH 7.4 (Variant v Par0067),Binder
0.95 fold,1 fold,B4
–,605 fold,B5
59 fold,18.9 fold,B6
19.5 fold,34.7 fold,B7
8.5 fold,110 fold,B8
8.9 fold,3.5 fold,B9
8.5 fold,6.8 fold,B10
27.2 fold,8.4 fold,B11
15.1 fold,526 fold,B12
6.3 fold,12.3 fold,B13
17.6 fold,111 fold,B14
14 fold,5.7 fold,B15
5.9 fold,2.8 fold,B16
11.8 fold,4 fold,B17
–,174 fold,B18
–,39.3 fold,B19
11.5 fold,83.2 fold,B20
–,193 fold,B21
17.4 fold,58.1 fold,B22

# Biological target: T2, recombinant biotinylated human PAR2 …
# Test: HTRF competition with Dylight650-Par0067 IgG, pH 6.0, IgG
# Experimental: as §4, §5
row,IC50,Binder
1,0.79 nM,B4
2,932 nM,B6
3,565 nM,B7
4,784 nM,B8
5,25.8 nM,B9
6,48.2 nM,B10
7,190 nM,B11
8,6600 nM,B12
9,64.6 nM,B13
10,1640 nM,B14
11,67.1 nM,B15
12,13.9 nM,B16
13,40 nM,B17
14,796 nM,B20
15,845 nM,B22

# Biological target: T2, recombinant biotinylated human PAR2 …
# Test: HTRF competition with Dylight650-Par0067 IgG, pH 7.4, IgG
# Experimental: as §4, §5
row,IC50,Binder
1,0.835 nM,B4
2,505 nM,B5
3,15.8 nM,B6
4,29 nM,B7
5,91.9 nM,B8
6,2.9 nM,B9
7,5.7 nM,B10
8,7 nM,B11
9,439 nM,B12
10,10.3 nM,B13
11,93 nM,B14
12,4.8 nM,B15
13,2.4 nM,B16
14,3.4 nM,B17
15,145 nM,B18
16,32.8 nM,B19
17,69.5 nM,B20
18,161 nM,B21
19,48.5 nM,B22

# From patent US20180305450A1 (AstraZeneca / MedImmune, published 2018)
